Source: publication PMC9482650, “Quantitative fragmentomics allow affinity mapping of interactomes” (Nature Communications, 2022)

T1: DFNB31_2, Q9P202
T1 sequence (Q9P202 274-371, limits assumed, looked up): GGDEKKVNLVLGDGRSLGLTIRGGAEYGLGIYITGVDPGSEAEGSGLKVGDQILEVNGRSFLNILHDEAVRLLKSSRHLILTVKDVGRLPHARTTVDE

T2: DFNB31_3, Q9P202
T2 sequence (Q9P202 811-907, limits assumed, looked up): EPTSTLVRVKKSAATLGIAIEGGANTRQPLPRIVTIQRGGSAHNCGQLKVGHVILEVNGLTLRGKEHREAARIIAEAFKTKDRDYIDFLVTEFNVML

T3: DLG3_2, Q92796
T3 sequence (Q92796 221-321, limits assumed, looked up): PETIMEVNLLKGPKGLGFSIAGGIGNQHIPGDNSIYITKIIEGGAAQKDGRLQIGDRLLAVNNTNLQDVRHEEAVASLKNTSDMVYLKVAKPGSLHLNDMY

T4: DLG3_3, Q92796
T4 sequence (Q92796 374-475, limits assumed, looked up): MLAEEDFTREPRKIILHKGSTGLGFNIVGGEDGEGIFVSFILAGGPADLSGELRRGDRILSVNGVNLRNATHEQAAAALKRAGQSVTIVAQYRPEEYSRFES

T5: HTRA4, P83105
T5 sequence (P83105 378-476, limits assumed, looked up): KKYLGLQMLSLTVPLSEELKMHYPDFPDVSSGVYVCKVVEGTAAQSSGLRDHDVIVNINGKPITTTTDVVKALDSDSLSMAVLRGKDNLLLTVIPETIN

T6: LIN7C, Q9NUP9
T6 sequence (Q9NUP9 88-185, limits assumed, looked up): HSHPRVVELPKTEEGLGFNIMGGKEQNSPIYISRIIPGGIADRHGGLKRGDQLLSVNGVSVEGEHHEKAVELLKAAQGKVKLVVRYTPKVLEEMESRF

T7: MPP7, Q5T2T1
T7 sequence (Q5T2T1 134-230, limits assumed, looked up): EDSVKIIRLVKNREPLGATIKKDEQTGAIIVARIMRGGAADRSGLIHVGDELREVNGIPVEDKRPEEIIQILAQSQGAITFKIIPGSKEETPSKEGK

T8: PDZD2_2, O15018
T8 sequence (O15018 329-429, limits assumed, looked up): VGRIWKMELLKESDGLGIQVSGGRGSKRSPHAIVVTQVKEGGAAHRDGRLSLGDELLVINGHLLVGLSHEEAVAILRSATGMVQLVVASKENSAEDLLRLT

T9: PTPN13_1, Q12923
T9 sequence (Q12923 1088-1188, limits assumed, looked up): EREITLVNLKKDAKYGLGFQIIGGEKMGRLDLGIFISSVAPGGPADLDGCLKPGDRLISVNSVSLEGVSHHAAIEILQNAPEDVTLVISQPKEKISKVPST

T10: RADIL, Q96JH8
T10 sequence (Q96JH8 971-1071, limits assumed, looked up): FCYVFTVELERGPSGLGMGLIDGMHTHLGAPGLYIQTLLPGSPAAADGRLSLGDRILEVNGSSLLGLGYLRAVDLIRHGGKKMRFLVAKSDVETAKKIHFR

T11: TX1BP3, O14907
T11 sequence (O14907 10-122, limits assumed, looked up): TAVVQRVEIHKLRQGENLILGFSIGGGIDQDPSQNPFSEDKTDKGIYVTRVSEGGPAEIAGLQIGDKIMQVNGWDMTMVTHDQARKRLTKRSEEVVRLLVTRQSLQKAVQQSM


Columns and labels:
Assay in all cases: holdup assay
Design in all cases: key: below the threshold = too weak to quantify, mostly under pKd 3.1 to 4
Conditions in all cases: plain residues with an end cap or a label only (N-terminal biotin on a linker: ado-ado)
DFNB31_2, Q9P202 = molecular target: T1, DFNB31_2, Q9P202
DFNB31_3, Q9P202 = molecular target: T2, DFNB31_3, Q9P202
DLG3_2, Q92796 = molecular target: T3, DLG3_2, Q92796
DLG3_3, Q92796 = molecular target: T4, DLG3_3, Q92796
DLG4_3, P78352 = molecular target: DLG4_3, P78352
Chain of DLG4_3, P78352 (P78352 306-403): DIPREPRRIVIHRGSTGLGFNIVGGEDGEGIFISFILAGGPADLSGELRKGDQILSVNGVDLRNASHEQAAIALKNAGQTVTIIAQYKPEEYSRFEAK

FRMPD2_3, Q68DX3 = molecular target: FRMPD2_3, Q68DX3
Chain of FRMPD2_3, Q68DX3 (Q68DX3 1073-1166): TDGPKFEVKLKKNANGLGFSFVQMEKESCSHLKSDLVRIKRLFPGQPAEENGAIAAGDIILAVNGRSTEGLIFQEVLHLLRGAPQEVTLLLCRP

GRIP2_4, Q9C0E4 = molecular target: GRIP2_4, Q9C0E4
Chain of GRIP2_4, Q9C0E4 (Q9C0E4 446-548): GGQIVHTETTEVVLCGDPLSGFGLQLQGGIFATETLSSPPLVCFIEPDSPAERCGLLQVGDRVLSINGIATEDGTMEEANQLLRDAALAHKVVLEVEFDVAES

HTRA2, O43464 = molecular target: HTRA2, O43464
Chain of HTRA2, O43464 (O43464 355-458): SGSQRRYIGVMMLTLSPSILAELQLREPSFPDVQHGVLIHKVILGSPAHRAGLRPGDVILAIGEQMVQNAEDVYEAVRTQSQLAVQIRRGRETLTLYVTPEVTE

HTRA4, P83105 = molecular target: T5, HTRA4, P83105
IL16_3, Q14005 = molecular target: IL16_3, Q14005
Chain of IL16_3, Q14005 (Q14005 1107-1207): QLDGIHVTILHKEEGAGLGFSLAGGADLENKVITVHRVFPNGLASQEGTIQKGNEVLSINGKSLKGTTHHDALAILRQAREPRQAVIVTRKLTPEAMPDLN

Inadl_1, Q8NI35 = molecular target: Inadl_1, Q8NI35
Chain of Inadl_1, Q8NI35 (Q8NI35 113-229): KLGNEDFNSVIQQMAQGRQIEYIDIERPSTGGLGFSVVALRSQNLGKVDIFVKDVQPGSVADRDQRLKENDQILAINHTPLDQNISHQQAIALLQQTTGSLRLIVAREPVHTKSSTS

Inadl_4, Q8NI35 = molecular target: Inadl_4, Q8NI35
Chain of Inadl_4, Q8NI35 (Q8NI35 547-651): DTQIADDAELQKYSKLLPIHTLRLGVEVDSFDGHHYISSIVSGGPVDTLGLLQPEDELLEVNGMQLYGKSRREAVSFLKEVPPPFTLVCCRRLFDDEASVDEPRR

Inadl_5, Q8NI35 = molecular target: Inadl_5, Q8NI35
Chain of Inadl_5, Q8NI35 (Q8NI35 673-780): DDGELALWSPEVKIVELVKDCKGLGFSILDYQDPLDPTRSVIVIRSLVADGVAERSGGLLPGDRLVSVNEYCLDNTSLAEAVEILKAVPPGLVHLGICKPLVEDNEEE

Inadl_6, Q8NI35 = molecular target: Inadl_6, Q8NI35
Chain of Inadl_6, Q8NI35 (Q8NI35 1058-1167): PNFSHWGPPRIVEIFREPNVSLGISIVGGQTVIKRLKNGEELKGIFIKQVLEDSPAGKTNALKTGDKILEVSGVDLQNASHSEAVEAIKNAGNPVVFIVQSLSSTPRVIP

LAP2, Q96RT1 = molecular target: LAP2, Q96RT1
Chain of LAP2, Q96RT1 (Q96RT1 other isoform, or with tags, fused parts or gaps): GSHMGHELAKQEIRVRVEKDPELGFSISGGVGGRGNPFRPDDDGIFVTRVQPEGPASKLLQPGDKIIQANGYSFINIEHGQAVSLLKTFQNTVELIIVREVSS

LIN7C, Q9NUP9 = molecular target: T6, LIN7C, Q9NUP9
MAGI2_2, Q86UL8 = molecular target: MAGI2_2, Q86UL8
Chain of MAGI2_2, Q86UL8 (Q86UL8 410-522): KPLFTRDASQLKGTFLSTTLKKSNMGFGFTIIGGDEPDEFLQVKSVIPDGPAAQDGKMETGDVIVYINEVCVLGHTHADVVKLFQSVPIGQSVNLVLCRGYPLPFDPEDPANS

MAGI2_5, Q86UL8 = molecular target: MAGI2_5, Q86UL8
Chain of MAGI2_5, Q86UL8 (Q86UL8 915-1017): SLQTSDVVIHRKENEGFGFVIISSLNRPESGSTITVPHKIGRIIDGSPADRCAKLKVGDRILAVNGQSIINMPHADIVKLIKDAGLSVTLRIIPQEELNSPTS

MAST1, Q9Y2H9 = molecular target: MAST1, Q9Y2H9
Chain of MAST1, Q9Y2H9 (Q9Y2H9 962-1065): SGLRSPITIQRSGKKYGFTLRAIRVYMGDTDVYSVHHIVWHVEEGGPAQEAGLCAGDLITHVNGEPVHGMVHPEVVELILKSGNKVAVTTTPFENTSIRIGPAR

MPP7, Q5T2T1 = molecular target: T7, MPP7, Q5T2T1
NOS1, P29475 = molecular target: NOS1, P29475
Chain of NOS1, P29475 (P29475 9-101): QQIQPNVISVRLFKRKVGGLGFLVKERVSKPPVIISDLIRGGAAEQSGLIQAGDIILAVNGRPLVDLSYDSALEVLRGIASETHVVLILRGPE

PDZD2_2, O15018 = molecular target: T8, PDZD2_2, O15018
PICK1, Q9NRD5 = molecular target: PICK1, Q9NRD5
Chain of PICK1, Q9NRD5 (Q9NRD5 17-115): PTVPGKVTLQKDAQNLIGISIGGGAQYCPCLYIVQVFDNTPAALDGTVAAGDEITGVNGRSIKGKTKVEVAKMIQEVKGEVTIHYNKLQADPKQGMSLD

PTPN13_1, Q12923 = molecular target: T9, PTPN13_1, Q12923
RADIL, Q96JH8 = molecular target: T10, RADIL, Q96JH8
SCRIB_3, Q14160 = molecular target: SCRIB_3, Q14160
Chain of SCRIB_3, Q14160 (Q14160 999-1103): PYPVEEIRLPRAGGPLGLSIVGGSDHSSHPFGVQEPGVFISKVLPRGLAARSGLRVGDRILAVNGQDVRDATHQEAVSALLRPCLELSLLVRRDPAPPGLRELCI

TX1BP3, O14907 = molecular target: T11, TX1BP3, O14907

Binder | pKd (DFNB31_2, Q9P202) | pKd (DFNB31_3, Q9P202) | pKd (DLG3_2, Q92796) | pKd (DLG3_3, Q92796) | pKd (DLG4_3, P78352) | pKd (FRMPD2_3, Q68DX3) | pKd (GRIP2_4, Q9C0E4) | pKd (HTRA2, O43464) | pKd (HTRA4, P83105) | pKd (IL16_3, Q14005) | pKd (Inadl_1, Q8NI35) | pKd (Inadl_4, Q8NI35) | pKd (Inadl_5, Q8NI35) | pKd (Inadl_6, Q8NI35) | pKd (LAP2, Q96RT1) | pKd (LIN7C, Q9NUP9) | pKd (MAGI2_2, Q86UL8) | pKd (MAGI2_5, Q86UL8) | pKd (MAST1, Q9Y2H9) | pKd (MPP7, Q5T2T1) | other results
VISERNSTTV [C3AR1, Q16581] | below the threshold | below the threshold | 4.42 | below the threshold | 3.54 | below the threshold | below the threshold | below the threshold | 4.11 | below the threshold | below the threshold | below the threshold | 3.65 | below the threshold | below the threshold | below the threshold | 4.51 | 3.73 | 3.74 | below the threshold | pKd (NOS1, P29475): below the threshold; pKd (PDZD2_2, O15018): 4.55; pKd (PICK1, Q9NRD5): below the threshold; pKd (PTPN13_1, Q12923): below the threshold; pKd (RADIL, Q96JH8): 4.11; pKd (SCRIB_3, Q14160): 3.62; pKd (TX1BP3, O14907): below the threshold
WRSKRTDTLL [RAMP3, O60896] | below the threshold | below the threshold | below the threshold | below the threshold | below the threshold | below the threshold | below the threshold | below the threshold | below the threshold | below the threshold | below the threshold | below the threshold | below the threshold | below the threshold | below the threshold | below the threshold | 4.23 | below the threshold | 3.84 | below the threshold | pKd (NOS1, P29475): 3.89; pKd (PDZD2_2, O15018): 3.52; pKd (PICK1, Q9NRD5): below the threshold; pKd (PTPN13_1, Q12923): below the threshold; pKd (RADIL, Q96JH8): 3.57; pKd (SCRIB_3, Q14160): 3.98; pKd (TX1BP3, O14907): 4.13
PDGEMMEVLI [AMOTL1, Q8IY63] | below the threshold | 3.65 | 4.06 | below the threshold | below the threshold | below the threshold | below the threshold | below the threshold | 3.75 | below the threshold | below the threshold | below the threshold | below the threshold | below the threshold | below the threshold | below the threshold | below the threshold | below the threshold | 3.71 | 4.24 | pKd (NOS1, P29475): 4.01; pKd (PDZD2_2, O15018): 3.77; pKd (PICK1, Q9NRD5): below the threshold; pKd (PTPN13_1, Q12923): below the threshold; pKd (RADIL, Q96JH8): 3.9; pKd (SCRIB_3, Q14160): 3.74; pKd (TX1BP3, O14907): below the threshold
FEEEAEEEVA [TUBB4B, P68371] | below the threshold | 3.89 | 4.01 | below the threshold | below the threshold | below the threshold | below the threshold | below the threshold | below the threshold | below the threshold | below the threshold | below the threshold | below the threshold | below the threshold | below the threshold | 3.76 | below the threshold | below the threshold | below the threshold | 3.59 | pKd (NOS1, P29475): below the threshold; pKd (PDZD2_2, O15018): below the threshold; pKd (PICK1, Q9NRD5): below the threshold; pKd (PTPN13_1, Q12923): below the threshold; pKd (RADIL, Q96JH8): below the threshold; pKd (SCRIB_3, Q14160): below the threshold; pKd (TX1BP3, O14907): 3.8
